Measured values from patent US20160058880.

What was measured:
[1] = test system: N-succinyl-beta-alanyl-L-leucyl-L-alanyl-L-leucyl-doxorubicin
[2] = test system: Succinyl-βALPF-doxorubicin

TOP (recombinant human thimet oligopeptidase, R&D systems, Ref 3439-ZN)
cleavage by purified TOP 5 nM (grade) (LGP-Dox): - | cleavage by purified TOP 5 nM (grade) [1]: + | cleavage by purified TOP 5 nM (grade; * = less than 5% of metabolites detected) (PhAc-AIGP-doxorubicin): -* | cleavage by purified TOP 5 nM (grade; * = less than 5% of metabolites detected) (PhAc-ALAF-doxorubicin): -* | cleavage by purified TOP 5 nM (grade) (PhAc-ALAL-doxorubicin): + | cleavage by purified TOP 5 nM (grade) (PhAc-ALGP-doxorubicin): + | cleavage by purified TOP 5 nM (grade; * = less than 5% of metabolites detected) (PhAc-ALPF-doxorubicin): -* | cleavage by purified TOP 5 nM (grade) (PhAc-DLGP-doxorubicin): - | cleavage by purified TOP 5 nM (grade) (PhAc-GPGP-doxorubicin): - | cleavage by purified TOP 5 nM (grade) (PhAc-KLGP-doxorubicin): + | cleavage by purified TOP 5 nM (grade) (PhAc-TSGP-doxorubicin): + | cleavage by purified TOP 5 nM (grade) [2]: -
